Measurements: patent US20180208918A1

B1: soybean trypsin inhibitor (SBTI) (protein, UniProt P01070 25-205, looked up)
chain: DFVLDNEGNPLENGGTYYILSDITAFGGIRAAPTGNERCPLTVVQSRNELDKGIGTIISSPYRIRFIAEGHPLSLKFDSFAVIMLCVGIPTEWSVVEDLPEGPAVKIGENKDAMDGWFRLERVSDDEFNNYKLVFCPQQAEDDKCGDIGISIDHDDGTRRLVVSKNKPLVVQFQKLDKESL

Tests used:
[1] = test system: pPROT8 derived LacZ-proELA-1 fusion protein [β-galactosidase: P00722]
[2] = test system: recombinant MBP-proELA-1 fusion protein (from pPROT5)
[3] = target: recombinant trypsin (TrypZean) (UniProt P00760); experiment: cell-based or functional assay
Sequence of UniProt P00760 (P00760 24-246): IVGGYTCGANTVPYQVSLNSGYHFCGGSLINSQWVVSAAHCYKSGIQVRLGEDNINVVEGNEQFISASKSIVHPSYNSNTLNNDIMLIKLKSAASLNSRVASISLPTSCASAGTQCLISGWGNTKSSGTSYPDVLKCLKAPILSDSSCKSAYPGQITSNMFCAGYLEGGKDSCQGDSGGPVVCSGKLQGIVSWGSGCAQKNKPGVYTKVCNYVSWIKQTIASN

Row | Molecule | conversion of the fusion protein to enzymatically active human ELA-1 with trypsin [1] | digestion of the fusion protein with trypsin (SDS-PAGE; elastase activity by SLAP assay) [2] | Mean trypsin activity (BENZ assay), TrypZean concentration equivalent; PRT-201 from clone 55M3 Vial #1 plus TrypZean spike (to 100 ng/mL) and SBTI (to 10 ug/mL); spike without SBTI 118.7 [3] [ng/mL] | Mean trypsin activity (BENZ assay), TrypZean concentration equivalent; PRT-201 from clone 55M3 Vial #2 plus TrypZean spike (to 100 ng/mL) and SBTI (to 10 ug/mL); spike without SBTI 122.4 [3] [ng/mL] | Mean trypsin activity (BENZ assay), TrypZean concentration equivalent; PRT-201 from clone 55M3 Vial #3 plus TrypZean spike (to 100 ng/mL) and SBTI (to 10 ug/mL); spike without SBTI 122.8 [3] [ng/mL] | Mean trypsin activity (BENZ assay), TrypZean concentration equivalent; PRT-201 from trypsin activated clone plus SBTI (to 10 ug/mL); intrinsic activity without SBTI 8.7 [3] [ng/mL] | Mean trypsin activity (BENZ assay), TrypZean concentration equivalent; PRT-201 from trypsin activated clone plus TrypZean spike (to 100 ng/mL) and SBTI (to 10 ug/mL); spike without SBTI 130.0 [3] [ng/mL] | Mean trypsin activity (BENZ assay), TrypZean concentration equivalent; TrypZean standard 1.56 ng/mL plus SBTI (to 10 ug/mL); without SBTI 2.7 [3] [ng/mL] | Mean trypsin activity (BENZ assay), TrypZean concentration equivalent; TrypZean standard 3.13 ng/mL plus SBTI (to 10 ug/mL); without SBTI 3.7 [3] [ng/mL] | Mean trypsin activity (BENZ assay), TrypZean concentration equivalent; TrypZean standard 6.25 ng/mL plus SBTI (to 10 ug/mL); without SBTI 6.5 [3] [ng/mL] | Mean trypsin activity (BENZ assay), TrypZean concentration equivalent; TrypZean standard 12.5 ng/mL plus SBTI (to 10 ug/mL); without SBTI 11.2 [3] [ng/mL] | Mean trypsin activity (BENZ assay), TrypZean concentration equivalent; TrypZean standard 25 ng/mL plus SBTI (to 10 ug/mL); without SBTI 23.5 [3] [ng/mL] | Mean trypsin activity (BENZ assay), TrypZean concentration equivalent; TrypZean standard 50 ng/mL plus SBTI (to 10 ug/mL); without SBTI 49.4 [3] [ng/mL] | Mean trypsin activity (BENZ assay), TrypZean concentration equivalent; TrypZean standard 100 ng/mL plus SBTI (to 10 ug/mL); without SBTI 102.4 [3] [ng/mL]
1 | trypsin | it could not be converted to enzymatically active human ELA-1 with trypsin | The soluble recombinant MBP-proELA-1 protein could be digested with trypsin to yield both MBP and mature human ELA-1 |  |  |  |  |  |  |  |  |  |  |  | 
2 | B1 |  |  | < 1.56 | < 1.56 | < 1.56 | < 1.56 | < 1.56 | < 1.56 | < 1.56 | < 1.56 | < 1.56 | < 1.56 | < 1.56 | < 1.56
